According to patent US7901879B2, “Lactoferrin in the treatment of malignant neoplasms and other hyperproliferative diseases” (Agennix Incorporated, priority 2002, dated 2011):

Test system: IL-18
Test: IL-18 levels in small intestine and serum after oral rhLF or bLF (cytokine ELISA)
Assay type: in vivo, mice
Method: Recombinant human lactoferrin and bovine lactoferrin were orally administered to mice, and the production of IL-18 in the small intestine was measured.
Mice were treated for three days daily with 65 mg/kg/day of rhLF, 300 mg/kg/day of rhLF or 300 mg/kg/day of bLF. For a control, mice were only administered the pharmaceutical carrier. Twenty-four hours following administration of the LF or control for 3 days, animals were weighed and blood and serum were collected. Serum was used for cytokine ELISA assays.
Also, at these time points, animals were sacrificed and the small intestinal tissue was removed for further analysis. Small intestinal epithelium was homogenized using a lysis buffer consisting of PBS, 1% Nonidet P-40, 0.5% sodium deoxycholate, and 0.1% sodium dodecyl sulphate containing 10 μg/ml PhenylMetheylsulfonyl fluoride. Homogenate was centrifuged at 15,000 rpm for 10 minutes and the supernatant stored at −80 C. till it was tested for IL-18 levels.

[1] = oral 300 mg/kg/day for three days, 24 h after last dose
[2] = oral, rhLF at both doses, bLF 300 mg/kg/day

B1: bovine lactoferrin (protein, UniProt P24627 20-708, looked up)
Lactotransferrin: APRKNVRWCTISQPEWFKCRRWQWRMKKLGAPSITCVRRAFALECIRAIAEKKADAVTLDGGMVFEAGRDPYKLRPVAAEIYGTKESPQTHYYAVAVVKKGSNFQLDQLQGRKSCHTGLGRSAGWIIPMGILRPYLSWTESLEPLQGAVAKFFSASCVPCIDRQAYPNLCQLCKGEGENQCACSSREPYFGYSGAFKCLQDGAGDVAFVKETTVFENLPEKADRDQYELLCLNNSRAPVDAFKECHLAQVPSHAVVARSVDGKEDLIWKLLSKAQEKFGKNKSRSFQLFGSPPGQRDLLFKDSALGFLRIPSKVDSALYLGSRYLTTLKNLRETAEEVKARYTRVVWCAVGPEEQKKCQQWSQQSGQNVTCATASTTDDCIVLVLKGEADALNLDGGYIYTAGKCGLVPVLAENRKSSKHSSLDCVLRPTEGYLAVAVVKKANEGLTWNSLKDKKSCHTAVDRTAGWNIPMGLIVNQTGSCAFDEFFSQSCAPGADPKSRLCALCAGDDQGLDKCVPNSKEKYYGYTGAFRCLAEDVGDVAFVKNDTVWENTNGESTADWAKNLNREDFRLLCLDGTRKPVTEAQSCHLAVAPNHAVVSRSDRAAHVKQVLLHQQALFGKNGKNCPDKFCLFKSETKNLLFNDNTECLAKLGGRPTYEEYLGTEYVTAIANLKKCSTSPLLEACAFLTR
Oral 300 mg/kg
  IL-18 Intestinal Extract % Increase Over Control: 373%
  IL-18 Serum % Increase Over Control: −5%
[1]
  IL-18 Intestinal Extract: 4,515 pg
  IL-18 Serum: 134 pg
[2]
  effect on amount of IL-18 in the intestinal extract: lesser increase
  effect on amount of IL-18 in the serum: did not increase
